Assay results reported in the supplement of paper PMC9233669.
Fewer inactive variants are shown than the library holds.

What was measured:
biotinyl-Met-oxazolone = assay: self-aminoacylation, catalytic enhancement (BMO) (fold over background); higher = more active; k-Seq, kA / k0A0; sequences stand for … in GGGAAUGGAUCCACAUCUACGAAUUC…UUCACUGCAGACUUGACGAAGCUG
Summary of the method: (§1)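 Working in 50 μL HEPES/NaCl/KCl/MgCl2/CaCl2 buffer with 5% acetonitrile at pH 6.9–7.0, mutagenized RNA pools (0.43 μM; 21-nt variable region) were reacted with 2–1250 μM of each biotinyl-aminoacyl-oxazolone for 90 minutes at room temperature. Streptavidin capture followed, with quantification by triplicate qPCR and Illumina sequencing. Catalytic enhancement is reported as median kA over the uncatalyzed rate, the low-activity peak of a bimodal Gaussian fit to the data.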

biotinyl-Leu-oxazolone = assay: self-aminoacylation, catalytic enhancement (BLO) (fold over background); higher = more active; k-Seq, kA / k0A0; sequences stand for … in GGGAAUGGAUCCACAUCUACGAAUUC…UUCACUGCAGACUUGACGAAGCUG
Summary of the method: as §1

biotinyl-Ile-oxazolone = assay: self-aminoacylation, catalytic enhancement (BIO) (fold over background); higher = more active; k-Seq, kA / k0A0; sequences stand for … in GGGAAUGGAUCCACAUCUACGAAUUC…UUCACUGCAGACUUGACGAAGCUG
Summary of the method: as §1

biotinyl-Val-oxazolone = assay: self-aminoacylation, catalytic enhancement (BVO) (fold over background); higher = more active; k-Seq, kA / k0A0; sequences stand for … in GGGAAUGGAUCCACAUCUACGAAUUC…UUCACUGCAGACUUGACGAAGCUG
Summary of the method: as §1

biotinyl-Phe-oxazolone = assay: self-aminoacylation, catalytic enhancement (BFO) (fold over background); higher = more active; k-Seq, kA / k0A0; sequences stand for … in GGGAAUGGAUCCACAUCUACGAAUUC…UUCACUGCAGACUUGACGAAGCUG
Summary of the method: as §1

biotinyl-Trp-oxazolone = assay: self-aminoacylation, catalytic enhancement (BWO) (fold over background); higher = more active; k-Seq, kA / k0A0; sequences stand for … in GGGAAUGGAUCCACAUCUACGAAUUC…UUCACUGCAGACUUGACGAAGCUG
Summary of the method: as §1

| Sequence | self-aminoacylation (biotinyl-Met-oxazolone) | self-aminoacylation (biotinyl-Leu-oxazolone) | self-aminoacylation (biotinyl-Ile-oxazolone) | self-aminoacylation (biotinyl-Val-oxazolone) | self-aminoacylation (biotinyl-Phe-oxazolone) | self-aminoacylation (biotinyl-Trp-oxazolone) |
| --- | --- | --- | --- | --- | --- | --- |
| AAGUUUGCUAUUAGUCGCUAG [Fam3.1 aminoacylation ribozyme variant] | 1.01 | 0.815 | 0.864 | 0.85 | 1.16 | 0.805 |
| AGGUUUCCUAAUAGUCGCAAG [Fam3.1 aminoacylation ribozyme variant] | 1.6 | 1.61 | 1.65 | 1.44 | 2.49 | 1.54 |
| UUACUUCAAACAAUCGCUCUG [Fam1A.1 aminoacylation ribozyme variant] | 1.07 | 1.16 | 1.21 | 1.12 | 2.29 | 1.51 |
| AUUUACCUCGGUCAUCGGGUG [Fam2.2 aminoacylation ribozyme variant] | 6.78 | 8.51 | 4.06 | 4.9 | 54.6 | 7.01 |
| CCACACUUCAAGCAAUCGGAU [Fam1B.1 aminoacylation ribozyme variant] | 0.886 | 0.789 | 1.03 | 1.38 | 0.817 | 1.63 |
| AUUCACCUAGGCCAUCGGGCG [Fam2.2 aminoacylation ribozyme variant] | 3.01 | 3.11 | 2.65 | 3.17 | 15.5 | 5.38 |
| AUUUACCUGGGUCAUCGGGUG [Fam2.2 aminoacylation ribozyme variant] | 18.5 | 22.1 | 8.99 | 10.3 | 57.3 | 17.2 |
| CUACAUCAAAUAAUCGGUCUG [Fam1A.1 aminoacylation ribozyme variant] | 0.804 | 0.717 | 0.801 | 0.864 | 1.42 | 0.824 |
| AUUACCCGGGUCAUCGAAUGA [Fam2.1 aminoacylation ribozyme variant] | 0.972 | 1.25 | 1 | 1.29 | 0.592 | 0.515 |
| AGUCACCUAGGUCAUCGAGUG [Fam2.2 aminoacylation ribozyme variant] | 4.24 | 5.93 | 3.67 | 3.16 | 6.67 | 4.19 |
| AUUCACCUAGGUUAUCGGAUG [Fam2.2 aminoacylation ribozyme variant] | 0.712 | 0.673 | 0.661 | 0.986 | 0.355 | 0.723 |
| AUUCACCAAGGUCAUCGCGUG [Fam2.2 aminoacylation ribozyme variant] | 16 | 20.7 | 7.86 | 8.42 | 132 | 12.6 |
| CUUACCCUGGUCAUCGAGUCA [Fam2.1 aminoacylation ribozyme variant] | 0.897 | 0.705 | 0.742 | 1.07 | 0.627 | 0.547 |
| AUUACCCUAGUCAACGAGUGA [Fam2.1 aminoacylation ribozyme variant] | 5.11 | 5.35 | 3.09 | 3.26 | 25.6 | 6.9 |
| CUACCUCAAACGAUCGGUCUG [Fam1A.1 aminoacylation ribozyme variant] | 1 | 1.03 | 0.987 | 0.761 | 1.42 | 0.954 |
| CUAUUUCAAACAAUCGGUCUU [Fam1A.1 aminoacylation ribozyme variant] | 0.878 | 0.792 | 0.864 | 0.827 | 2.72 | 1.57 |
| AACUUUGCUAAUAGUCGCCAG [Fam3.1 aminoacylation ribozyme variant] | 2.59 | 3.5 | 2.68 | 2.87 | 10.9 | 2.35 |
| CCACACUUCAAGCUAACGGUC [Fam1B.1 aminoacylation ribozyme variant] | 0.532 | 0.444 | 0.568 | 0.78 | 0.79 | 0.546 |
| GUUACCCUGGUCAUUGAGUGA [Fam2.1 aminoacylation ribozyme variant] | 10.2 | 11 | 4.72 | 5.29 | 71.3 | 13 |
| CUACUUCCAACAGUCGGUCUG [Fam1A.1 aminoacylation ribozyme variant] | 1.06 | 0.971 | 0.911 | 0.851 | 0.496 | 0.76 |
| AAUCACCUAGGGCAUCGGGUG [Fam2.2 aminoacylation ribozyme variant] | 3.75 | 3.93 | 3.31 | 3.49 | 28 | 5.34 |

| Sequence | self-aminoacylation (biotinyl-Met-oxazolone) | self-aminoacylation (biotinyl-Leu-oxazolone) | self-aminoacylation (biotinyl-Ile-oxazolone) | self-aminoacylation (biotinyl-Val-oxazolone) | self-aminoacylation (biotinyl-Phe-oxazolone) | self-aminoacylation (biotinyl-Trp-oxazolone) |
| --- | --- | --- | --- | --- | --- | --- |
| AUCACCCUAGUCAUCGAGUGA [Fam2.1 aminoacylation ribozyme variant] | 8.04 | 8.78 | 4.35 | 4.27 | 49.7 | 7.4 |
| AUUACCCCGGUCCUCGAGUGA [Fam2.1 aminoacylation ribozyme variant] | 3.32 | 3.97 | 2.29 | 2.21 | 25.5 | 4.82 |
| CUACUUCACACAAUCGGCCUG [Fam1A.1 aminoacylation ribozyme variant] | 1.75 | 1.75 | 1.69 | 1.86 | 0.896 | 1.72 |
| GUUCACCUAGGUCAUUGGGUG [Fam2.2 aminoacylation ribozyme variant] | 2.21 | 2.83 | 2.6 | 2.27 | 8.92 | 3.8 |
| CAACACUCCAAGCAAUCGGUC [Fam1B.1 aminoacylation ribozyme variant] | 1.02 | 0.956 | 1.13 | 1.06 | 1.67 | 1.77 |
| AAGUUUGCUAAUAGUCGCAUU [Fam3.1 aminoacylation ribozyme variant] | 1.25 | 1.27 | 1.37 | 1.22 | 1.63 | 1.29 |
| CCACACUUCGAGCCAUCGGUC [Fam1B.1 aminoacylation ribozyme variant] | 1.27 | 1.58 | 1.84 | 1.87 | 1.27 | 1.02 |
| UUUACCCUGGUCAUCGAAUGA [Fam2.1 aminoacylation ribozyme variant] | 1.22 | 1.19 | 1.31 | 1.05 | 1.02 | 1.78 |
| AAGUCUGCUAAUAGUCACAAG [Fam3.1 aminoacylation ribozyme variant] | 1.95 | 1.3 | 1.24 | 1.25 | 12.6 | 3.73 |
| AGUAUCCUGGUCAUCGAGUGA [Fam2.1 aminoacylation ribozyme variant] | 6.72 | 7.39 | 4.12 | 4 | 20.7 | 8.53 |
| AAGUUUGGUAAUAGUCGCAAA [Fam3.1 aminoacylation ribozyme variant] | 1.66 | 1.44 | 1.88 | 1.44 | 1.72 | 1.75 |
| CUACUUCAAAAAAUCGGUCAG [Fam1A.1 aminoacylation ribozyme variant] | 0.722 | 0.653 | 0.845 | 0.613 | 3.51 | 1.82 |
| UUUCACCUAGCUCAUCGGGUG [Fam2.2 aminoacylation ribozyme variant] | 1.77 | 2.24 | 2.03 | 2.73 | 1.68 | 2.5 |
| AUUCUCCUAGGUUAUCGGGUG [Fam2.2 aminoacylation ribozyme variant] | 6.52 | 8.02 | 4.08 | 3.88 | 40.2 | 6.28 |
| AAGUUUGCUAAUAGUCUCCAG [Fam3.1 aminoacylation ribozyme variant] | 0.855 | 0.909 | 1.1 | 0.947 | 1.59 | 1.02 |
| AAGUUUGCUAAUAGUCGCGCG [Fam3.1 aminoacylation ribozyme variant] | 3.95 | 4.77 | 3.47 | 2.94 | 20.9 | 5.74 |
| AUUCACCUAGGUGAUCGGGUG [Fam2.2 aminoacylation ribozyme variant] | 2.81 | 3.27 | 2.52 | 2.62 | 16.6 | 3.34 |
| CCGCACUGCAAGCAAUCGGUC [Fam1B.1 aminoacylation ribozyme variant] | 1.21 | 1.17 | 1.52 | 1.81 | 1 | 1.42 |
| CUACUUCAAGCAAUCGGUGUG [Fam1A.1 aminoacylation ribozyme variant] | 1.59 | 1.83 | 1.26 | 1.24 | 3.56 | 3.13 |
| AUUCAUCUAGGUCCUCGGGUG [Fam2.2 aminoacylation ribozyme variant] | 5.21 | 8.62 | 4 | 3.9 | 49.6 | 5.66 |
| CUACUGCAAACAAUGGGUCUG [Fam1A.1 aminoacylation ribozyme variant] | 1.2 | 1.13 | 1.25 | 1.08 | 1.5 | 1.12 |
